The assay concerns the target Human BCMA-rFc (BCMA Protein aa 1-54, Human, Recombinant (ECD, rabbit Fc Tag), cat. no. 10620-H15H, Sino Biological) (human) (UniProt Q02223). As to the kind of experiment: SPR, 200 nM hCD16a over immobilised hBCMA-rFc without engager (background control). Background: Surface plasmon resonance follows binding to a sensor surface in real time, without labels.

For two substances, response signal results are on record in patent US20250333445A1, “NOVEL POLYPEPTIDES” (Oncopeptides Innovation 1 AB, priority 2022, published 2025).

Bounds are passed on as bounds.

In the case of “hCD16a F158 (Cat. no. CDA-H5220, Acro Biosystems) (from UniProt P08637 17-208) (receptor)”, the response signal is below 10 RU. Take “hCD16a V158 (Cat. no. CD8-H52H4, Acro Biosystems) (from UniProt P08637 17-208) (receptor)”: the response signal is below 10 RU.
